Source: the supplement of paper PMC9112550, “Optimization of the antimicrobial peptide Bac7 by deep mutational scanning” (BMC Biology, 2022)

Each sequence was assayed on Escherichia coli TOP10 (assay: shrunken log2 fold change of peptide-encoding DNA abundance (4.5 h post-induction vs induction); higher = less antimicrobial activity (less host growth inhibition)). Conditions: time post-induction: 4.5 h; library: site-saturation at positions 5, 18, 19, 20.
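Also: peptides expressed intracellularly from a pBAD plasmid library in pooled LB shake-flask culture, induced with 0.3% L-arabinose, DNA abundance read by NGS, three biological replicates, DESeq2 with apeglm shrinkage.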

| Sequence | shrunken log2 fold change |
| --- | --- |
| RRIRKRPPRLPRPRPRPGYRPRP | 0.129 |
| RRIRHRPPRLPRPRPRPLYAPRP | -0.402 |
| RRIRERPPRLPRPRPRPFKYPRP | -0.0322 |
| RRIRARPPRLPRPRPRPSTPPRP | 0.235 |
| RRIRPRPPRLPRPRPRPWLVPRP | 0.159 |
| RRIRARPPRLPRPRPRPREDPRP | 0.879 |
| RRIRSRPPRLPRPRPRPMLPPRP | -0.078 |
| RRIRPRPPRLPRPRPRPEHEPRP | 0.0185 |
| RRIRGRPPRLPRPRPRPSIQPRP | 0.176 |
| RRIRIRPPRLPRPRPRPDLYPRP | -0.408 |
| RRIRDRPPRLPRPRPRPNVWPRP | 0.234 |
| RRIRYRPPRLPRPRPRPWSKPRP | -0.0945 |
| RRIRHRPPRLPRPRPRPWFMPRP | -0.474 |
| RRIRDRPPRLPRPRPRPIEIPRP | -0.298 |
| RRIRRRPPRLPRPRPRPKKYPRP | -0.103 |
| RRIRRRPPRLPRPRPRPGQTPRP | 0.0182 |
| RRIRCRPPRLPRPRPRPIINPRP | -0.325 |
| RRIRSRPPRLPRPRPRPKFLPRP | -0.0307 |
| RRIRFRPPRLPRPRPRPFHYPRP | 0.0611 |
| RRIRGRPPRLPRPRPRPRNPPRP | 0.52 |
| RRIRWRPPRLPRPRPRPIWDPRP | 0.214 |
| RRIRWRPPRLPRPRPRPLSVPRP | 0.0836 |
| RRIRQRPPRLPRPRPRPCQDPRP | 0.0207 |
| RRIRRRPPRLPRPRPRPGAAPRP | 0.866 |
| RRIRSRPPRLPRPRPRPVHVPRP | -0.0394 |

| Sequence | shrunken log2 fold change |
| --- | --- |
| RRIRSRPPRLPRPRPRPCFKPRP | -0.173 |
| RRIRPRPPRLPRPRPRPGACPRP | 0.35 |
| RRIRVRPPRLPRPRPRPHSKPRP | -0.496 |
| RRIRYRPPRLPRPRPRPKKIPRP | -0.483 |
| RRIRVRPPRLPRPRPRPGWQPRP | 0.545 |
| RRIRSRPPRLPRPRPRPKNFPRP | -0.053 |
| RRIRQRPPRLPRPRPRPTWMPRP | -0.262 |
| RRIRVRPPRLPRPRPRPCCNPRP | -0.426 |
| RRIRPRPPRLPRPRPRPNNMPRP | -0.412 |
| RRIRIRPPRLPRPRPRPINVPRP | -0.619 |
| RRIRFRPPRLPRPRPRPVFSPRP | -0.293 |
| RRIRCRPPRLPRPRPRPAAMPRP | 0.281 |
| RRIRVRPPRLPRPRPRPGTSPRP | -0.073 |
| RRIRPRPPRLPRPRPRPDEKPRP | -0.0591 |
| RRIRERPPRLPRPRPRPKTHPRP | -0.392 |
| RRIRGRPPRLPRPRPRPAGNPRP | 0.693 |
| RRIRCRPPRLPRPRPRPDCWPRP | 0.23 |
| RRIRERPPRLPRPRPRPVDFPRP | -0.0586 |
| RRIRVRPPRLPRPRPRPTKSPRP | -0.00156 |
| RRIRYRPPRLPRPRPRPMIPPRP | -0.727 |
| RRIRYRPPRLPRPRPRPVDSPRP | 0.0413 |
| RRIRKRPPRLPRPRPRPCMGPRP | 0.045 |
| RRIRVRPPRLPRPRPRPAIEPRP | 0.0433 |
| RRIRNRPPRLPRPRPRPLQSPRP | -0.0505 |
| RRIRPRPPRLPRPRPRPEHHPRP | -0.0616 |

| Sequence | shrunken log2 fold change |
| --- | --- |
| RRIRKRPPRLPRPRPRPTHNPRP | 0.299 |
| RRIRLRPPRLPRPRPRPFHAPRP | -0.219 |
| RRIRCRPPRLPRPRPRPRCCPRP | -0.245 |
| RRIRFRPPRLPRPRPRPSMKPRP | -0.753 |
| RRIRLRPPRLPRPRPRPQPAPRP | 0.294 |
| RRIRWRPPRLPRPRPRPPRHPRP | 0.608 |
| RRIRARPPRLPRPRPRPMTKPRP | 0.248 |
| RRIRPRPPRLPRPRPRPEQQPRP | -0.0146 |
| RRIRMRPPRLPRPRPRPQAMPRP | 0.318 |
| RRIRKRPPRLPRPRPRPWPLPRP | -0.0227 |
| RRIRHRPPRLPRPRPRPGLDPRP | 0.269 |
| RRIRFRPPRLPRPRPRPDTTPRP | 0.00968 |
| RRIRWRPPRLPRPRPRPFTCPRP | 0.000407 |
| RRIRVRPPRLPRPRPRPGKPPRP | 0.0464 |
| RRIRKRPPRLPRPRPRPGGKPRP | 0.123 |
| RRIRRRPPRLPRPRPRPSLKPRP | 0.108 |
| RRIRFRPPRLPRPRPRPAVQPRP | -0.0142 |
| RRIRDRPPRLPRPRPRPRHPPRP | 0.0563 |
| RRIRQRPPRLPRPRPRPFQHPRP | -0.117 |
| RRIRSRPPRLPRPRPRPRSQPRP | 0.169 |
| RRIRFRPPRLPRPRPRPPNCPRP | -0.159 |
| RRIRWRPPRLPRPRPRPTYCPRP | -0.126 |
| RRIRPRPPRLPRPRPRPNTAPRP | -0.23 |
| RRIRCRPPRLPRPRPRPALIPRP | -0.0928 |
| RRIRQRPPRLPRPRPRPYGWPRP | -0.112 |

| Sequence | shrunken log2 fold change |
| --- | --- |
| RRIRFRPPRLPRPRPRPKPYPRP | -0.109 |
| RRIRDRPPRLPRPRPRPQNGPRP | -0.0018 |
| RRIRYRPPRLPRPRPRPKASPRP | -0.131 |
| RRIRCRPPRLPRPRPRPMSDPRP | 0.113 |
| RRIRNRPPRLPRPRPRPSHIPRP | -0.69 |
| RRIRYRPPRLPRPRPRPKSGPRP | 0.0623 |
| RRIRWRPPRLPRPRPRPGHWPRP | 0.335 |
| RRIRQRPPRLPRPRPRPINWPRP | -0.0302 |
| RRIRIRPPRLPRPRPRPKHPPRP | -0.0675 |
| RRIRQRPPRLPRPRPRPKFHPRP | -0.0648 |
| RRIRGRPPRLPRPRPRPPVKPRP | 0.678 |
| RRIRRRPPRLPRPRPRPLCIPRP | -0.119 |
| RRIRDRPPRLPRPRPRPEMRPRP | 1.29 |
| RRIRARPPRLPRPRPRPENYPRP | 0.0453 |
| RRIRWRPPRLPRPRPRPLDTPRP | 0.0244 |
| RRIRYRPPRLPRPRPRPQEMPRP | -0.0143 |
| RRIRRRPPRLPRPRPRPEHLPRP | 0.242 |
| RRIRSRPPRLPRPRPRPRGEPRP | 0.754 |
| RRIRYRPPRLPRPRPRPFLRPRP | -0.308 |
| RRIRGRPPRLPRPRPRPDQTPRP | 0.0112 |
| RRIRSRPPRLPRPRPRPECDPRP | 0.262 |
| RRIRFRPPRLPRPRPRPTRGPRP | 0.54 |
| RRIRFRPPRLPRPRPRPQRMPRP | -0.29 |
| RRIRCRPPRLPRPRPRPKFCPRP | -0.0358 |
| RRIRHRPPRLPRPRPRPKQPPRP | -0.00478 |

| Sequence | shrunken log2 fold change |
| --- | --- |
| RRIRHRPPRLPRPRPRPMNLPRP | -0.0351 |
| RRIRGRPPRLPRPRPRPKMFPRP | 0.065 |
| RRIRHRPPRLPRPRPRPTKGPRP | -0.14 |
| RRIRRRPPRLPRPRPRPVPGPRP | 0.402 |
| RRIRGRPPRLPRPRPRPGCYPRP | 0.345 |
| RRIRLRPPRLPRPRPRPFCYPRP | -0.465 |
| RRIRHRPPRLPRPRPRPEWDPRP | 0.00396 |
| RRIRVRPPRLPRPRPRPFNAPRP | -0.563 |
| RRIRIRPPRLPRPRPRPAAVPRP | -0.181 |
| RRIRCRPPRLPRPRPRPYPQPRP | -0.595 |
| RRIRGRPPRLPRPRPRPTSVPRP | 0.197 |
| RRIRERPPRLPRPRPRPMQSPRP | 0.0874 |
| RRIRYRPPRLPRPRPRPHHTPRP | -0.418 |
| RRIRRRPPRLPRPRPRPCQCPRP | 0.0262 |
| RRIRHRPPRLPRPRPRPEDTPRP | 0.0437 |
| RRIRRRPPRLPRPRPRPYEAPRP | 0.125 |
| RRIRCRPPRLPRPRPRPIVRPRP | -0.793 |
| RRIRVRPPRLPRPRPRPMGNPRP | -0.0915 |
| RRIRTRPPRLPRPRPRPYQTPRP | -0.128 |
| RRIRQRPPRLPRPRPRPDKSPRP | -0.0319 |
| RRIRARPPRLPRPRPRPCWPPRP | 0.162 |
| RRIRHRPPRLPRPRPRPQSLPRP | -0.00783 |
| RRIRDRPPRLPRPRPRPEFPPRP | -0.00168 |
| RRIRVRPPRLPRPRPRPRVKPRP | -0.221 |
| RRIRYRPPRLPRPRPRPDSYPRP | -0.0836 |

| Sequence | shrunken log2 fold change |
| --- | --- |
| RRIRQRPPRLPRPRPRPTFWPRP | 2.04 |
| RRIRQRPPRLPRPRPRPMKFPRP | -0.21 |
| RRIRLRPPRLPRPRPRPNMSPRP | -0.129 |
| RRIRLRPPRLPRPRPRPDKTPRP | -0.146 |
| RRIRMRPPRLPRPRPRPTHGPRP | 0.188 |
| RRIRARPPRLPRPRPRPAWKPRP | 0.398 |
| RRIRKRPPRLPRPRPRPDWVPRP | 0.0285 |
| RRIRWRPPRLPRPRPRPRHMPRP | -0.139 |
| RRIRYRPPRLPRPRPRPHLVPRP | -0.0159 |
| RRIRLRPPRLPRPRPRPFHIPRP | -0.292 |
| RRIRVRPPRLPRPRPRPDISPRP | -0.0643 |
| RRIRPRPPRLPRPRPRPNKVPRP | -0.1 |
| RRIRGRPPRLPRPRPRPTQDPRP | 1.34 |
| RRIRWRPPRLPRPRPRPGTEPRP | 0.403 |
| RRIRHRPPRLPRPRPRPTRWPRP | 0.137 |
| RRIRDRPPRLPRPRPRPDIVPRP | 0.0868 |
| RRIRQRPPRLPRPRPRPGDYPRP | -0.17 |
| RRIRSRPPRLPRPRPRPICYPRP | -0.475 |
| RRIRHRPPRLPRPRPRPPLNPRP | -0.0242 |
| RRIRVRPPRLPRPRPRPHGAPRP | -0.0881 |
| RRIRARPPRLPRPRPRPHGKPRP | 0.175 |
| RRIRSRPPRLPRPRPRPLHTPRP | 0.0576 |
| RRIRARPPRLPRPRPRPALAPRP | 0.554 |
| RRIRSRPPRLPRPRPRPKRSPRP | 0.205 |
| RRIRSRPPRLPRPRPRPHYKPRP | -0.891 |
